In the supplement of paper PMC9170038:

Test system: MS2 coat protein
Experiment: apparent KD of MS2 coat protein; designed switch direction (-1 OFF switch, 1 ON switch): 1; higher = weaker reporter binding
Method in brief: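 On Illumina chips, designed RNA switches with common flanks were made by stalled E. coli RNA polymerase. Titrations with SNAP-549-labelled MS2 coat protein, doubling from 0.7 or 1.5 nM to 3 µM, were done with no input, with 200 uM small-molecule ligand, or with an oligonucleotide input. Apparent KD is the median per design over clusters, from curve fits of normalised cluster fluorescence.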

[1] = input ligand: microRNA oligo, concentration not stated
[2] = Eterna round: R95, input ligand: FMN 200 uM
[3] = Eterna round: R95, input ligand: microRNA oligo, concentration not stated
[4] = Eterna round: R95, input ligand: none

Sequence: GAGAGAGGGCGAGGAUAUUCGGUGAUAAUGAUGGAAGAAGGCGCUGACAUGAGGAUCACCCAUGUGGGAAUAAUCCAGAGAGAG [Parity 15 - Jieux - Same State NG 1] (Eterna round: R96, puzzle: Same State NG 1)
- apparent KD of MS2 coat protein (input ligand: FMN 200 uM): 494 nM
- apparent KD of MS2 coat protein [1]: 130 nM
- apparent KD of MS2 coat protein (input ligand: none): 237 nM

Sequence: UAGUUACUAUCUCAGGAUAUCAUGUCAAAGACAUGAGGAUCACCCAUGUACCAGGAAACUGGUUAUGAGAAGGGAGAUAGUAACU [Mat - Same State 2 - Mod - D55] (puzzle: Same State 2)
- apparent KD of MS2 coat protein [2]: 134 nM
- apparent KD of MS2 coat protein [3]: 104 nM
- apparent KD of MS2 coat protein [4]: 1070 nM

Sequence: UAGCUCGUGUGAGGAUAUGCCGCCGUUUCGGCUGCAGAAGGUGCUACGUUACAUGAGGAUCACCCAUGUCUCUGUUGUUUCGUG [salish99_SSNG1_r04_957] (Eterna round: R96, puzzle: Same State NG 1)
- apparent KD of MS2 coat protein (input ligand: FMN 200 uM): 18.9 nM
- apparent KD of MS2 coat protein [1]: 19.6 nM
- apparent KD of MS2 coat protein (input ligand: none): 21.8 nM

Sequence: GUUACAUGAGGAUCACCCAUGUAUGUGUGGGAGUAAGUGUCUUAGGAUAUCUAUCAAUUAAUUUAAGAGAAGGAAGAUUGUUGU [JMF's solution 89] (Eterna round: R96, puzzle: Same State NG 3)
- apparent KD of MS2 coat protein (input ligand: FMN 200 uM): 116 nM
- apparent KD of MS2 coat protein [1]: 94 nM
- apparent KD of MS2 coat protein (input ligand: none): 110 nM

Sequence: GCGAGCGUACUUGCUACAUGAGGAUCACCCAUGUUAACUGGACAGGAUAUGGUACCGUUUCGGUACCAGAAGGGUUCAUCAUGU [JL SSNG3 3.68] (Eterna round: R96, puzzle: Same State NG 3)
- apparent KD of MS2 coat protein (input ligand: FMN 200 uM): 306 nM
- apparent KD of MS2 coat protein [1]: 245 nM
- apparent KD of MS2 coat protein (input ligand: none): 665 nM

Sequence: GUAGAUAUAACGGAGGAUAUUCAAUGAGAGACAUGAGGAUCACCCAUGUGAGAGUGAGAUGAUAGGAAGAAGGCUGAGAGAGAUG [Altered State 2-7 - Jieux - Same State 2] (puzzle: Same State 2)
- apparent KD of MS2 coat protein [2]: 94.2 nM
- apparent KD of MS2 coat protein [3]: 70.3 nM
- apparent KD of MS2 coat protein [4]: 64.7 nM

Sequence: AAUUAAGAUCAAGGAUAUCACGUCGAAUAGACGUGAGAAGGUGAUAAUUACAUGAGGAUCACCCAUGUAUAACAUGAAUUAAUU [SSNG1/9-B1] (Eterna round: R96, puzzle: Same State NG 1)
- apparent KD of MS2 coat protein (input ligand: FMN 200 uM): 30 nM
- apparent KD of MS2 coat protein [1]: 24.8 nM
- apparent KD of MS2 coat protein (input ligand: none): 38 nM

Sequence: CCGGGUAAUGGAGGAUAUGGAGCCUUAUUGGCUCCAGAAGGCUAACAUGAGGAUCACCCAUGUAGUCCGGCGGUCAAUAGACCG [Eli NG1ss - 66] (Eterna round: R96, puzzle: Same State NG 1)
- apparent KD of MS2 coat protein (input ligand: FMN 200 uM): 10.5 nM
- apparent KD of MS2 coat protein [1]: 13.2 nM
- apparent KD of MS2 coat protein (input ligand: none): 19.2 nM

Sequence: AAAGAAACAUGAGGAUCACCCAUGUACCGCGGAAUGUGUGCACAGGAUAUGUACAGCUUUUGCUUACAGAAGGGUGCGCCCGUG [Enorso] (Eterna round: R96, puzzle: Same State NG 3)
- apparent KD of MS2 coat protein (input ligand: FMN 200 uM): 20.8 nM
- apparent KD of MS2 coat protein [1]: 38.7 nM
- apparent KD of MS2 coat protein (input ligand: none): 70 nM

Sequence: AUUUCAGUCAGAGGAUAUUGUUUAUCUCUAUUGCAAGAAGGCUGAUCUUACUACCCACUUAUGAAACAUGAGGAUCACCCAUGU [JR_SSNG1_Sub017] (Eterna round: R96, puzzle: Same State NG 1)
- apparent KD of MS2 coat protein [1]: 15.7 nM

Sequence: AGCCGAGACUGAGGAUAUUUUAAUCUACAUGAGGAUCACCCAUGUAACAACACGUGGUAUUGAUAGAAGAAGGCGGCUCGGCGC [Omei SS(NG)2 C] (Eterna round: R96, puzzle: Same State NG 2)
- apparent KD of MS2 coat protein (input ligand: FMN 200 uM): 24.3 nM
- apparent KD of MS2 coat protein [1]: 50.4 nM
- apparent KD of MS2 coat protein (input ligand: none): 64 nM

Sequence: AGCCGAAGCACAGGAUAUACAUGUAUACAUGAGGAUCACCCAUGUAGCAACACGUGGUAGUGAUUGUAGAAGGGUGCUCGGCGC [Omei SS(NG)2 Cv14] (Eterna round: R96, puzzle: Same State NG 2)
- apparent KD of MS2 coat protein (input ligand: FMN 200 uM): 21.3 nM
- apparent KD of MS2 coat protein [1]: 16 nM
- apparent KD of MS2 coat protein (input ligand: none): 25.3 nM

Sequence: AGCCGAGACGCAGGAUAUAGAUAUCUACAUGAGGAUCACCCAUGUAGCAACACGUGGUAGUGAUUCUAGAAGGGUGCUCGGCGC [Omei SS(NG)2 Cv7] (Eterna round: R96, puzzle: Same State NG 2)
- apparent KD of MS2 coat protein (input ligand: FMN 200 uM): 44.9 nM
- apparent KD of MS2 coat protein [1]: 322 nM
- apparent KD of MS2 coat protein (input ligand: none): 504 nM

Sequence: ACGCAGCUGGGUGAGGAUAUUGGUGGUACAACAUGAGGAUCACCCAUGUCCGAAGCUCGGACCCUCGAGAAGGCGCCCGGCUGCG [Soinraesar Omei Mod 5] (puzzle: Same State 2)
- apparent KD of MS2 coat protein [2]: 122 nM
- apparent KD of MS2 coat protein [3]: 17.2 nM
- apparent KD of MS2 coat protein [4]: 62 nM

Sequence: GCUAGAAUAAAUGCUAACAUGAGGAUCACCCAUGUAUGUUGGCAGGAUAUCGUAUGCAAAGCAUACGAGAAGGGCCAUACUAGC [Mat - Same State NG 3 - JL Mod - D27] (Eterna round: R96, puzzle: Same State NG 3)
- apparent KD of MS2 coat protein (input ligand: FMN 200 uM): 17.3 nM
- apparent KD of MS2 coat protein [1]: 20.4 nM
- apparent KD of MS2 coat protein (input ligand: none): 29.5 nM

Sequence: GGAGCCGGCACUGAGGAUAUUCGUAUUAAAACAUGAGGAUCACCCAUGUAGGCCAGAAGGCCUUGGGAGAAGGCAGGUCGACUCG [Diqureveri - 2] (puzzle: Same State 2)
- apparent KD of MS2 coat protein [2]: 17.2 nM
- apparent KD of MS2 coat protein [3]: 38.9 nM
- apparent KD of MS2 coat protein [4]: 59.7 nM

Sequence: GGAGCCGGUACUGAGGAUAUUCAUAUUAAAACAUGAGGAUCACCCAUGUGGGCCAGAAGGCCUUGGGAGAAGGCAGACCAGCUCG [Atgexeedri - 3] (puzzle: Same State 2)
- apparent KD of MS2 coat protein [2]: 15.4 nM
- apparent KD of MS2 coat protein [3]: 115 nM
- apparent KD of MS2 coat protein [4]: 177 nM

Sequence: UGUUGUAUUACAGGAUAUCUAGUAUUUUUAUUUAGAGAAGGGUAUUCACAUGAGGAUCACCCAUGUAUAUACGAGGAAGUUGUG [JMF's solution 9] (Eterna round: R96, puzzle: Same State NG 1)
- apparent KD of MS2 coat protein [1]: 28 nM

Sequence: GGAACACAUGAGGAUCACCCAUGUCAAGGAGGUCGAGGAUAUAGGAAAAAAAAAAAAAAAUUAGAAGGUGAGGAGG [V1] (Eterna round: R96, puzzle: Same State 1)
- apparent KD of MS2 coat protein (input ligand: FMN 200 uM): 270 nM
- apparent KD of MS2 coat protein [1]: 166 nM
- apparent KD of MS2 coat protein (input ligand: none): 275 nM

Sequence: AUAAAACAUGAGGAUCACCCAUGUCAACAAAGUCGAGGAUAUGGGCAAAUAUAAUAAGAACCAGAAGGCGAAUAAU [salish99_ss1_r3_023] (puzzle: Same State 1)
- apparent KD of MS2 coat protein [2]: 36.1 nM
- apparent KD of MS2 coat protein [3]: 204 nM
- apparent KD of MS2 coat protein [4]: 336 nM

Sequence: GGAGCCGGUACUGAGGAUAUUCAUAUUAAAACAUGAGGAUCACCCAUGUAGGCCAGAAGGCCUUGGGAGAAGGCAGGCCAGCUCG [Atgexeedri - 4] (puzzle: Same State 2)
- apparent KD of MS2 coat protein [2]: 20.2 nM
- apparent KD of MS2 coat protein [3]: 270 nM
- apparent KD of MS2 coat protein [4]: 458 nM

Sequence: GGAUGAUUGACAGGAUAUCAUUUGUAAAUUCGUUGAGAAGGGUCGAUUACUUACACGACGUGUUACAUGAGGAUCACCCAUGUU [SameState NG1 #4] (Eterna round: R96, puzzle: Same State NG 1)
- apparent KD of MS2 coat protein (input ligand: FMN 200 uM): 117 nM
- apparent KD of MS2 coat protein [1]: 101 nM
- apparent KD of MS2 coat protein (input ligand: none): 185 nM

Sequence: AGUGAACAUGAGGAUCACCCAUGUGAGAGAAGUGUAGGAUAUGUGAGAGGCGGAGGAGGGACAGAAGGACAUGGAG [JR_SS!_Sub075] (puzzle: Same State 1)
- apparent KD of MS2 coat protein [2]: 38.7 nM
- apparent KD of MS2 coat protein [3]: 42 nM
- apparent KD of MS2 coat protein [4]: 48.5 nM

Sequence: AAGUAACAUGAGGAUCACCCAUGUGAGGUGAGCGUAGGAUAUCGAGAAGGAAGGGUGGAGCGAGAAGGACGAGAGG [JR_SS1_Sub0100] (puzzle: Same State 1)
- apparent KD of MS2 coat protein [2]: 191 nM
- apparent KD of MS2 coat protein [3]: 401 nM
- apparent KD of MS2 coat protein [4]: 270 nM

Sequence: GCAGUGGCGGUAGGAUAUCUAGGAUAUGGGAAAGACUAAGUCUGUAGGUCACCUAACCCAGAAGGAGAGAAGGACCCUGUAAGG [pwkr ssNG2 2FMN + F9.21] (Eterna round: R96, puzzle: Same State NG 2)
- apparent KD of MS2 coat protein (input ligand: FMN 200 uM): 348 nM
- apparent KD of MS2 coat protein [1]: 74.7 nM
- apparent KD of MS2 coat protein (input ligand: none): 222 nM

Sequence: CGGGUACAUGAGGAUCACCCAUGUGGGAGGGAUGCAGGAUAUGUGGGAGGAGGGUAUGAAACAGAAGGGCAAGGAG [JR_SS!_Sub012] (puzzle: Same State 1)
- apparent KD of MS2 coat protein [2]: 46.7 nM
- apparent KD of MS2 coat protein [3]: 48.9 nM
- apparent KD of MS2 coat protein [4]: 65.5 nM

Sequence: CGUAGGUAGCUGGAGGAUAUUCGAGUGGUAACAUGAGGAUCACCCAUGUGGAGAGAGGAACAUGAGGAGAAGGCUAGCUGCCUGC [JL-ss2-3.19 JL mod] (puzzle: Same State 2)
- apparent KD of MS2 coat protein [2]: 8.36 nM
- apparent KD of MS2 coat protein [3]: 21.7 nM
- apparent KD of MS2 coat protein [4]: 16.7 nM

Sequence: ACGCUAAAUGGAGGAUAUGGAGCCUUAUUGGCUCCAGAAGGUCAAAACAUGAGGAUCACCCAUGUGCGGUGGUCUAAUGACCAC [Eli NG1ss - 47] (Eterna round: R96, puzzle: Same State NG 1)
- apparent KD of MS2 coat protein (input ligand: FMN 200 uM): 68 nM
- apparent KD of MS2 coat protein [1]: 99.2 nM
- apparent KD of MS2 coat protein (input ligand: none): 169 nM

Sequence: AGGUGAUAUGGAAAGGAUAUACGGUUUAGGACAUGAGGAUCACCCAUGUGGAAGAUGGCGAGAGAGUAGAAGGUUCGAAAUUGGU [JR_SS@_Sub024] (puzzle: Same State 2)
- apparent KD of MS2 coat protein [2]: 43.4 nM
- apparent KD of MS2 coat protein [3]: 75 nM
- apparent KD of MS2 coat protein [4]: 77.4 nM

Sequence: GAGUGGUGGAAAGGAUAUGCAUUGUUAUUCACUGUAGAAGGUUCUAACAUGAGGAUCACCCAUGUAGGACUAUUCCUGUGUUUU [Parity 59 - Jieux - Same State NG 1] (Eterna round: R96, puzzle: Same State NG 1)
- apparent KD of MS2 coat protein [1]: 10.2 nM

Sequence: AGCUAUCGAAAACGAUAGCAAAAGCAUGUACAUGAGGAUCACCCAUGUCGUGUACAAGCUUUUUGCUCGUCUUAAAA [Zipper 23 - 5] (puzzle: Sensor for hsa-mir-208a)
- apparent KD of MS2 coat protein [2]: 522 nM
- apparent KD of MS2 coat protein [3]: 13.9 nM
- apparent KD of MS2 coat protein [4]: 534 nM
